Biological target: the molecule itself
Test: FRET or BRET

B1: thromboxane A2 receptor alpha (TPα), fused to renilla luciferase (TPαrLUC) or to yellow fluorescent protein (TPαYFP) (receptor, UniProt P21731 1-343, looked up)
chain: MWPNGSSLGPCFRPTNITLEERRLIASPWFAASFCVVGLASNLLALSVLAGARQGGSHTRSSFLTFLCGLVLTDFLGLLVTGTIVVSQHAALFEWHAVDPGCRLCRFMGVVMIFFGLSPLLLGAAMASERYLGITRPFSRPAVASQRRAWATVGLVWAAALALGLLPLLGVGRYTVQYPGSWCFLTLGAESGDVAFGLLFSMLGGLSVGLSFLLNTVSVATLCHVYHGQEAAQQRPRDSEVEMMAQLLGIMVVASVCWLPLLVFIAQTVLRNPPAMSPAGQLSRTTEKELLIYLRVATWNQILDPWVYILFRRAVLRRLQPRLSTRPRSLSLQPQLTQRSGLQ
Question: B1 was tested. Which BRET50 did it give?
Answer: 1.24 YFP fold over basal

Reference: article PMC2924460 (Arteriosclerosis, thrombosis, and vascular biology, 2010)
